US11827701B2, “IL-6 binding molecules” (argenx BV, priority 2012, dated 2023)

B1: 129D3: final germlined variant of 68F2; 129D3-WT is wild-type IgG1 129D3 (antibody, listed as Lama glama, V domains shown)
VH: EVQLQESGPGLVKPSQTLSLTCTVSGGSITSRYYAWSWIRQPPGKGLEWIGVIDYDGDTYYSPSLKSRVSISWDTSKNQFSLKLSSVTPADTAVYYCARDPDVVTGFHYDYWGQGTMVTVSS
VL: QSALTQPPSVSGTPGQSVTISCAGANNDIGTYAYVSWYQQLPGTAPKLMIYKVTTRASGIPDRFSGSKSGNTASLTISGLQAEDEADYYCASYRNFNNAVFGTGTKLTVL
modifications: IgG1 constant regions
notes: final germlined variant of 68F2; 129D3-WT is wild-type IgG1 129D3
B2: 129F2: germlined variant of 68F2, IgG1 (antibody, listed as Lama glama, V domains shown)
VH: EVQLQESGPGLVKPSQTLSLTCTVSGGSITSRYYAWSWIRQPPGKGLEWIGVIDYDGDTYYSPSLKSRVTISWDTSKNQFSLKLSSVTAEDTAVYYCARDPDVVTGFHYDYWGQGTMVTVSS
VL: QSALTQPPSVSGTPGQTVTISCAGANNDIGTYAYVSWYQQLPGTAPKLMIYKVTTRASGIPDRFSGSKSGNTASLTISGLQSEDEADYYCASYRNFNNAVFGGGTKLTVL
modifications: IgG1 constant regions
notes: germlined variant of 68F2, IgG1

How the values were obtained:
IGROV-1 epithelial cells = test: Epithelial ovarian cancer mouse xenograft (survival); type: in vivo; conditions: 4 or 20 mg/kg biweekly, nude mice
Experimental: The in vivo potency of clone 129D3 was determined using a mouse xenogaft model. IGROV-1 epithelial cells (5×10^6) were injected subcutaneously into nude mice. After three days, mice were administered 129D3 or CNTO328 biweekly, at a dosage of 4 or 20 mg/kg. There were 5 mice per group and 10 mice in the control group. Percentage survival of mice in each study group was determined each week and the results plotted as a survival curve.

[1] = Thermal stability (melting temperature), functional antibody measured in Biacore; type: physicochemical
Experimental: To examine the thermal stability of the germlined and the parental versions of 68F2 in full length human IgG1 format, antibody samples were incubated at a concentration of 100 μg/ml (in PBS) at 4, 50, 55, 60, 65, 70 and 75° C. for 1 hour. Following this, the samples were cooled down slowly during a period of 15 minutes to 25° C. and kept at this temperature for 2 hours, after which they were stored overnight at 4° C. Following centrifugation to remove precipitates (of denatured antibody), the concentration of functional antibody remaining in solution was measured using Biacore (1/10 dilution in PBS and 1/10 in HBSEP). The slope of the association curve obtained after injection on the IL-6 immobilized chip is a measure of the concentration of functional antibody.

[2] = Pharmacokinetic study, single intravenous dose; type: in vivo, cynomolgus monkey
Experimental: Pharmacokinetic analysis of antibody clone 129D3 formatted as various IgG1 molecules was performed. The following antibodies were analysed: Wild-type IgG1 129D3 (129D3-WT), IgG1 129D3 with the mutations M252Y/S254T/T256E in the Fc region (129D3-YTE), and IgG1 129D3 with the mutations H433K and N434F in the Fc region (129D3-HN).
Cynomolgus monkeys (3 per antibody tested) were injected intravenously with a single 5 mg/kg dose of 129D3-WT, 129D3-YTE, or 129D3-HN. Samples were taken at different time points and tested for plasma concentration of mAb by the ELISA. Specifically, a microtiterplate (Maxisorb Nunc) was coated with 1 ug/ml IL-6 (Immunotools) in PBS overnight at 4C. The plate was washed 2 times with PBS-Tween and blocked for 2 hours with 300 μl PBS-1% casein. After 2 washes with PBS-Tween, the samples were applied. All dilutions were made in 1% pooled blank plasma (this is a pool from 3 naive cynomolgus monkeys, see chapter 4.2). The samples were allowed to bind for 2 hours at RT. Plates were then washed 5 times with PBS-Tween and goat biotinilated anti-human IgG heavy and light chain monkey adsorbed polyclonal antibodies were applied at a 1000-fold dilution (Bethyl, catno: A80-319B) and allowed to bind for 1 hour at RT. After washing the plates 5 times with PBS-Tween, streptavidin conjugated with HRP (Jackson Immunoresearch 016-030-084) was applied at a 300,000-fold dilution and allowed to bind for 1 hour at RT. Plates were then washed 5 times with PBS-Tween and a 1:1 mixture of TMB (calbiochem CL07)-s(HS)TMB weakener (SDT, #sTMB-W) was added. The staining was allowed to proceed for 10 minutes and then stopped with 0.5 M […], after which the Optical Density was measured at 450 nm. The samples were analysed four times and 129D3-WT (from the same batch that was injected into the animals) was used for a standard curve.
The pharmacokinetic profiles for the different 129D3 IgG1 antibodies are shown graphically in FIG. 12 (the results are shown are the average result of the group of monkeys).

RXF393 cells = test: Renal cell cancer mouse xenograft model; type: in vivo; conditions: 3 mg/kg
Experimental: The in vivo efficacy of clones 68F2 was investigated in a renal cell cancer mouse xenograft model. […] Briefly, RXF393 cells (2×10^6) were injected subcutaneously at both lateral sides of a nude mouse. Tumors were allowed to grow to a volume between of 50 en 300 mm^3, prior to antibody administration. 90% of the injected mice developed a tumor. 40 mice were split into 5 groups of 8 mice. Each group was received intraperatoneal injection of either PBS (control) or a specific dose of clone 68F2 (1, 3, 10, or 30 mg/kg). Tumor size and survival was monitored twice per week.

[3] = Production level of IgG1 after transient expression in HEK293E cells; conditions: IgG1, protein A purified
Experimental: The VH and VL of the germlined versions of 68F2 were recloned in pUPE Heavy Chain and Light Chain expression vectors, respectively, for transient expression of full-length IgG1 antibodies. After transient expression in HEK293E cells, IgG1 antibodies were purified with protein A and quantified by measurement of OD280. Table 19 below summarizes the production levels of the germlined derivatives together with the levels of the 68F2 parental antibody. Potencies (in pM) were also measured in a 7TD1 based proliferation assay for each antibody.

[4] = single intravenous administration, cynomolgus monkey, non-compartmental

Molecule	in vivo potency (survival) (IGROV-1 epithelial cells)	Tm higher than the parental 68F2 antibody ([1]; human IgG1) [°C]	Tm ([1]; human IgG1, 100 μg/ml in PBS, 1 hour)	half-life ([2]; 5 mg/kg i.v.)	MRT (Mean Residence Time) [2, 4] [days]	T½ (elimination half-life) [2, 4] [days]	k (mean elimination rate constant) [2, 4] [day⁻¹]	survival relative to control (RXF393 cells)	tumor outgrowth (RXF393 cells)	production level / production yield [3] [µg/mL]
B1	superior to the benchmark CNTO328 IL-6 antibody	3	around 70 °C	about 15.6 days	22.4	15.6	0.0468	effective at delaying death of mice relative to control	effective at inhibiting tumor outgrowth	
B2										9
